Assay results as given in patent publication US20240141069A1 (SHANGHAI JEMINCARE PHARMACEUTICAL, published 2024).

B1: rat anti-human MASP-2 monoclonal antibody 50A6 (antibody, V domains shown)
VH: EVQLVESGGGLVQPGRSLSLSCAASGFTFNDYNMAWVRQTPKKGLEWVATILFDGSRTYYRDSVKGRFTISRENAKSTLYLQMDSLRSEDTATYYCSTESPYYSEGYYQGYFDYWGQGVMVTVSS
VL: NIVLTQSPATLSVTPGESVSLSCRASQSVSTSIHWYQQRSNESPRLLIKYASRSISGIPSRFSGSGSGTDFTLSINRVESEDFSIYYCQQSYSSLYTFGAGTKLELR
notes: Rat hybridoma monoclonal antibody purified from serum-free culture and detected with anti-rat Fc-HRP; the rat constant regions are not; also called 50A6 antibody
B2: mouse anti-human MASP-2 monoclonal antibody 47A1 (antibody, V domains shown)
VH: DVQLQESGPGLVKPSQSLSLTCTVTGYSITSDYAWNWIRQFPGNKLEWMGYISYSGRTSYNPSLKSRISITRNTSTNQFFLQLNSVTTEDTATYFCARYWGDYWGQGTTLTVSS
VL: DIVMTQSQKFMSTSVGDRVSVTCKASQNVGSNVAWFQQKPGQSPKPLIYSASYRYSGVPDRFTGSGSGTDFTLTISNVQSEDLAEYFCHQYNTYPLTFGAGTKLELN
notes: Mouse hybridoma monoclonal antibody purified from serum-free culture and detected with anti-mouse HRP; the mouse constant regions are not; also called 47A1 antibody
B3: humanized anti-MASP-2 antibody JYB1931A63 (antibody, V domains shown)
VH: EVQLVESGGGLVQPGGSLRLSCAASGFTFNDYNMAWVRQAPGKGLEWVATILFDGSRTYYRDSVKGRFTISRDNAKNSLYLQMNSLRAEDTAVYYCSTESPYYSEGYYQGYFDYWGQGTLVTVSS
VL: EIVLTQSPATLSLSPGERATLSCRASQSVSTSIHWYQQKPGQAPRLLIKYASRSISGIPARFSGSGSGTDFTLTISSLEPEDFAVYYCQQSYSSLYTFGQGTKLEIK
notes: Humanized from 50A6 and expressed in ExpiCHO as a full antibody; captured on an AHC (anti-human Fc) sensor
B4: humanized anti-MASP-2 antibody JYB1931A13 (antibody, V domains shown)
VH: QVQLQESGPGLVKPSQTLSLTCTVSGYSITSDYAWNWIRQPPGKGLEWIGYISYSGRTSYNPSLKSRVTISRDTSKNQFSLKLSSVTAADTAVYYCARYWGDYWGQGTLVTVSS
VL: DIQMTQSPSSLSASVGDRVTITCKASQNVGSNVAWFQQKPGKAPKPLIYSASYRYSGVPSRFSGSGSGTDFTLTISSLQPEDFATYFCHQYNTYPLTFGGGTKVEIK
notes: Humanized from 47A1 and expressed in ExpiCHO as a full antibody; captured on an AHC (anti-human Fc) sensor

Columns and labels:
[1] = target: T1, recombinant human MASP-2 protein hMASP2-D456 (human, UniProt O00187 287-686); assay: ELISA on plate-coated hMASP2-D456, detection with HRP secondary antibody, OD450/630nm; unit taken from the axis 'Antibody pM (Ig)'
T1 sequence (O00187 other isoform, or with tags, fused parts or gaps limits assumed): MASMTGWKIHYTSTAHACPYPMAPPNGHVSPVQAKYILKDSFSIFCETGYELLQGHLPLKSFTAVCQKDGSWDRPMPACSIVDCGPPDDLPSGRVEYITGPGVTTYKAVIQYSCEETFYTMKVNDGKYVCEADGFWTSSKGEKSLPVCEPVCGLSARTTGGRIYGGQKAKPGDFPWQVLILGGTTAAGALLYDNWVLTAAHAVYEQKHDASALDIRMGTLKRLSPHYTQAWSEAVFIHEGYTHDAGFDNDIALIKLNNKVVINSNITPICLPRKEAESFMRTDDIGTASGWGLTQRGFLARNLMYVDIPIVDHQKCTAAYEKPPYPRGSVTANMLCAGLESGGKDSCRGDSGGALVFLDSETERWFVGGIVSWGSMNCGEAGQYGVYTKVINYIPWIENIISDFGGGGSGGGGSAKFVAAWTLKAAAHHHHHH
Description: (§1) The hMASP2-D456 was diluted to 1.0 μg/mL and 0.5 μg/mL with a carbonate buffer solution (CBS), each added to a high binding transparent polystyrene 96-well plate (Nunc) with 100 μL/well and wrapped overnight at 4° C. The next day, the ELISA plate was washed twice on an automatic plate washer with a washing buffer (PBS+0.05% Tween 20 (sigma)). 300 μL of blocking buffer (PBS+0.05% Tween 20 (sigma)+1% BSA) was added to each well, and the ELISA plate was sealed at room temperature for 1 hour. Then the ELISA plate was washed twice with the washing buffer on the automatic plate washer, and the monoclonal antibody was diluted with the blocking buffer to 8 gradients. The monoclonal antibody was sequentially added to each well of the ELISA plate and incubated at room temperature for 1 hour, and then the plate was washed 3 times according to the above method. 100 μL of goat anti-mouse HRP (Sigma, article number: M4280) or rabbit anti-rat Fc-HRP (Sigma, article number: A5795) diluted at 1:5000 in the blocking buffer was added to each well. Incubation was performed at room temperature for 1 hour, and then the plate was washed 3 times according to the above method. […] The plate was read at 450 nm on a Thermo Multiscan FC. Graphs were drawn with Graphpad and EC50 was calculated. […]

[2] = target: T2, mouse MASP-2 mMASP2-D456 (mouse, UniProt Q91WP0 287-685); assay: ELISA on plate-coated mMASP2-D456, OD450/630nm
T2 construct: Made by the same method as hMASP2-D456
T2 sequence (Q91WP0 other isoform, or with tags, fused parts or gaps limits assumed): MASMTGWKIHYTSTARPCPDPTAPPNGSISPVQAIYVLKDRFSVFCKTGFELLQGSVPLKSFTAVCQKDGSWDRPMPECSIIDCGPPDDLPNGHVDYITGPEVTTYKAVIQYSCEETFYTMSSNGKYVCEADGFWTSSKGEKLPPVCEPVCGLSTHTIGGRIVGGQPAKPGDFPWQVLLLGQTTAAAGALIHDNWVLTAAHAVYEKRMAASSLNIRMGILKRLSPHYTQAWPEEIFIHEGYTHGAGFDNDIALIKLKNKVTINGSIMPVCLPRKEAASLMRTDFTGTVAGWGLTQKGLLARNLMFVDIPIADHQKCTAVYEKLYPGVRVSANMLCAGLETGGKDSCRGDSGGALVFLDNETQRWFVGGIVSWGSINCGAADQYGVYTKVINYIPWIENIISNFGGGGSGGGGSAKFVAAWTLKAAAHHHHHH
Description: as §1, with “The mouse mMASP2-D456 and cynomolgus monkey cMASP2-D456 were diluted to” for “The hMASP2-D456 was diluted to”, “carbonate buffer solution, each added” for “carbonate buffer solution (CBS), each added”, “monoclonal antibody 50A6 was diluted” for “monoclonal antibody was diluted”, “buffer to 15.0 μg/mL at 11 gradients. The” for “buffer to 8 gradients. The”, “at 1:5000 with the blocking” for “at 1:5000 in the blocking”

[3] = target: T3, cynomolgus monkey MASP-2 cMASP2-D456 (cynomolgus monkey); assay: ELISA on plate-coated cMASP2-D456, detection with HRP secondary antibody, OD450/630nm; unit taken from the axis 'Antibody pM (Ig)'
T3 construct: Made by the same method as hMASP2-D456
T3 sequence (chain, as listed by the source limits assumed): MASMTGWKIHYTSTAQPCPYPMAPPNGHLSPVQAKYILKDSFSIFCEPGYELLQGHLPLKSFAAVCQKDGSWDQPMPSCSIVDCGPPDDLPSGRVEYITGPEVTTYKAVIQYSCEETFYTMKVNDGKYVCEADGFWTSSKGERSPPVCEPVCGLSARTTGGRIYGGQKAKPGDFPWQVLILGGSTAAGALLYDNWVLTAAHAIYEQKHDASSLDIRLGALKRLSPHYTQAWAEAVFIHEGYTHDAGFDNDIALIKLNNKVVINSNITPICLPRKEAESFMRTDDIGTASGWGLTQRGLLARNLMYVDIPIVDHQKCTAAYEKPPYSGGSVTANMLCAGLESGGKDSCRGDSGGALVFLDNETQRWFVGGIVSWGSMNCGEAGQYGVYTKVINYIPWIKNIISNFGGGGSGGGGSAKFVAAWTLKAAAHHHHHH
Description: as §1, with “The mouse mMASP2-D456 and cynomolgus monkey cMASP2-D456 were diluted to” for “The hMASP2-D456 was diluted to”, “carbonate buffer solution, each added” for “carbonate buffer solution (CBS), each added”, “monoclonal antibody 50A6 was diluted” for “monoclonal antibody was diluted”, “buffer to 15.0 μg/mL at 11 gradients. The” for “buffer to 8 gradients. The”, “at 1:5000 with the blocking” for “at 1:5000 in the blocking”

[4] = target: T3, cynomolgus monkey MASP-2 cMASP2-D456; assay: ELISA on plate-coated cMASP2-D456, detection with HRP secondary antibody, OD450/630nm
Description: as §1, with “The mouse mMASP2-D456 and cynomolgus monkey cMASP2-D456 were diluted to” for “The hMASP2-D456 was diluted to”, “carbonate buffer solution, each added” for “carbonate buffer solution (CBS), each added”, “monoclonal antibody 50A6 was diluted” for “monoclonal antibody was diluted”, “buffer to 15.0 μg/mL at 11 gradients. The” for “buffer to 8 gradients. The”, “at 1:5000 with the blocking” for “at 1:5000 in the blocking”

[5] = target: T1, recombinant human MASP-2 protein …; assay: ELISA on plate-coated hMASP2-D456, detection with HRP secondary antibody, OD450/630nm; unit taken from the axis 'Antibody nM (Ig)'
Description: as §1

[6] = target: T2, mouse MASP-2 mMASP2-D456; assay: Octet RED96e BLI, antibody captured on AHC sensor, antigen in solution
Description: (§2) Affinities of candidate antibodies JYB1931A63 and JYB1931A13 to human hMASP2-D456 (KACTUS, batch number: 080203), cynomolgus monkey cMASP2-D456 (KACTUS, batch number: 030301), and mouse mMASP2-D456 (KACTUS, batch number: 030401) were measured by Octet RED96e (Fortebio). The antigen and antibody were diluted with 1×PBST (1×PBS: Sangon, B548117-0500; 0.02% Tween 20: sigma-aldrich, P1379) at a concentration of 30 nM for the antigen and a concentration of 5 μg/mL for the antibody.
First, the sample was added to a 96-well plate (Greiner bio-one, 655209) with a system of 200 μL/well. Then, software parameters were set, the temperature of the plate was set to 30° C., and the frequency for collecting standard dynamic signals was 5.0 Hz. Next, an AHC sensor (Fortebio, article number: 18-0015) was pre-wet with 1×PBST for 10 minutes, and then data were acquired. […]
(§3) A binding rate (Ka) and a dissociation rate (Kd) in a 1:1 antigen-antibody binding manner were measured by Fortebio's Data Analysis 12.0 software to calculate an equilibrium dissociation constant (KD) of the antibody.

[7] = target: T3, cynomolgus monkey MASP-2 cMASP2-D456; assay: Octet RED96e BLI, antibody captured on AHC sensor, antigen 30 nM, 1:1 fit
Description: as §2
(§4) First, the sample was added to a 96-well plate (Greiner bio-one, 655209) with a system of 200 μL/well. Then, software parameters were set, the temperature of the plate was set to 30° C., and the frequency for collecting standard dynamic signals was 5.0 Hz. Next, an AHC sensor (Fortebio, article number: 18-0015) was pre-wet with 1×PBST for 10 minutes, and then data were acquired. Each cycle included the following steps: 1) immersing the sensor in a buffer solution for 60 seconds; 2) detecting whether the antigen had non-specific binding with the sensor; 3) regenerating the sensor with 10 mM pH 1.7 glycine solution; 4) immersing the sensor in the buffer solution for 60 seconds; 5) immobilizing the antibody on the sensor for 60 seconds; 6) immersing the sensor in the buffer solution for 180 seconds; 7) binding the antigen and the antibody for 180 seconds; 8) dissociating the antigen and the antibody for 5 minutes; and 9) regenerating the sensor.
as §3

[8] = target: T1, recombinant human MASP-2 protein …; assay: as above
Description: as §2, §4, §3

Binder	binding result [6]	Kd [7] [nM]	Kd [8] [nM]	other results
B1				EC50 [1]: 0.0933 nM; binding result [2]: no binding; EC50 [3]: 0.067 nM
B2				EC50 (read off the curve) [4]: ~0.6 nM; EC50 [5]: 0.333 nM
B3	no binding (tested: 30 nM antigen)	1.31	0.335	
B4	no binding (tested: 30 nM antigen)	0.305	1.17	
